We go through 50 molecules from patent publication US20030236190A1 (published 2003).

In this assay the target is human insulin receptor (HIR) (human, UniProt P06213 28-1382, limits assumed). Description: 125I-insulin competition, solubilised HIR.

Where a chain is given by its changes, count along the chain named. Non-standard residues stand in square brackets, D forms with d. No end group written: not given here. Tic = O=C(O)[C@@H]1Cc2ccccc2CN1; Ac6c = NC1(C(=O)O)CCCCC1

As a reminder, the Kd is the equilibrium constant for the complex coming apart.

B1: S510 (peptide)
peptide: SLEEEWAQVECEVYGRGCPSGGSGGSGLLDESFYHWFDRQLR
B1 had a Kd of 0.062 nM.

B2: S527 (peptide)
peptide: H[Ac6c]CAQE[dW]GSEL[Tic]QCSGSESFYDWFERQL
modifications: not fully specified (bridges); printed as H-Acy-CAQEwGSEL-Tic-QCSGSESFYDWFERQL; cysteine pairing not given here
notes: leading H- read as His; it may mean a free N-terminus
B2 returned a Kd of 2.4 nM.

B3: S400 (peptide)
peptide: ESFYDWFERQ
Consider B3, for which the Kd came out at 630 nM.

B4: S481 (peptide)
peptide: HHHHHHKLDQEWAWVQCEVYGRGCPSESFYDWFERQLG
B4 gave a Kd of 13 nM.

B5: S441 (peptide)
peptide 1: ESFYDWFERQLGGGGK
peptide 2: WAWVQCEVYGRGCPS
modifications: not fully specified (bridges); cysteine pairing not given here; also: K16 of chain 1 chemically linked to C-terminus of chain 2 (C-C on a lysine)
In turn, B5 showed a Kd of 120 nM.

B6: S437 (peptide)
peptide 1: ESFYDWFERQLGGGGK
peptide 2: LDQEWAWVQCEVYGRGCPS
modifications: not fully specified (bridges); cysteine pairing not given here; also: K16 of chain 1 chemically linked to C-terminus of chain 2 (C-C on a lysine)
In the case of B6, the equilibrium dissociation constant (Kd) worked out at 0.69 nM.

B7: S456 (peptide)
peptide 1: XGSLDESFYDWFERQLGKK
peptide 2: XKEWLDQEWAWVQCEVYGRGCPSEE
modifications: not fully specified; N-terminal Ald
On to B7, for which binding was put at a Kd of 2.4 nM.

B8: S520 (peptide)
peptide: SIEEEWAQIKCDVWGRGCPPGLLDESFYHWFDRQLR
B8 gave a Kd of 0.02 nM.

B9: S440 (peptide)
peptide 1: ESFYDWFERQLGGGGK
peptide 2: EWAWVQCEVYGRGCPS
modifications: not fully specified (bridges); cysteine pairing not given here; also: K16 of chain 1 chemically linked to C-terminus of chain 2 (C-C on a lysine)
In the case of B9, the Kd came out at 99 nM.

B10: S523 (peptide)
peptide: WLDQEWAWVQCEVYGRGCPSDSDWAGYEWFEEQLD
Molecule B10 showed a dissociation constant (Kd) of 4.3 nM.

B11: S531 (peptide)
peptide: SLEEEWAQVECEVYGRGCPSFYDWFERQL
For the molecule B11, the affinity, expressed as Kd, was 0.075 nM.

B12: S518 (peptide)
peptide: RLEEEWAWVQCEVYGRGCPSGSLDESFYDWFERQLG
With B12, binding was characterised by a dissociation constant (Kd) of 0.16 nM.

B13: S551 (peptide)
peptide: SLEEEWAQVEAEVYGRGAPSGSLDESFYDWFERQLG
B13 had a Kd of 0.072 nM.

B14: S540 (peptide)
peptide: B12 peptide with R1S, W8Q, Q10K
Molecule B14 came in with a dissociation constant (Kd) of 0.013 nM.

B15: S538 (peptide)
peptide: B13 peptide with E4Q, A11C, A18C
B15: the Kd amounted to 0.038 nM.

B16: S537 (peptide)
peptide: B13 peptide with E4H, A11C, A18C
For the molecule B16, the Kd turned out to be 0.044 nM.

B17: S539 (peptide)
peptide: B13 peptide with E4L, A11C, A18C
In turn, B17 returned a Kd of 0.098 nM.

B18: S542 (peptide)
peptide: SLEEEWAQVECEVYGRGCPSGSLDESFYH[dW]FERQLG
modifications: cysteine pairing not given here
As to B18, the affinity, expressed as Kd, was 0.027 nM.

B19: S541 (peptide)
peptide: B13 peptide with A11C, Y14W, A18C
As to B19, the Kd was found to be 0.0078 nM.

B20: S532 (peptide)
peptide: SLEEEWAWVECEVYGRGCPSGSLDESFYDWFERQL
As to B20, binding was put at a Kd of 0.037 nM.

B21: S399 (peptide)
peptide: ESFYDWFERQL
B21: the Kd turned out to be 95 nM.

B22: S483 (peptide)
peptide: LDEWAWVQCVEYGRGCPSESFYDWFERQLG
In turn, B22 gave a Kd of 52 nM.

B23: S439 (peptide)
peptide 1: ESFYDWFERQLGGGGK
peptide 2: QEWAWVQCEVYGRGCPS
modifications: not fully specified (bridges); cysteine pairing not given here; also: K16 of chain 1 chemically linked to C-terminus of chain 2 (C-C on a lysine)
Consider B23, for which the Kd turned out to be 46 nM.

B24: S457 (peptide)
peptide: WLDQEWAWVQCEVYGRGCPSGGSGGSGSLDESFYDWFERQLG
The molecule B24 yielded a Kd of 1.6 nM.

B25: S458 (peptide)
peptide: B24 peptide
Consider B25, for which the affinity, expressed as Kd, was 3.2 nM.

B26: S438 (peptide)
peptide 1: ESFYDWFERQLGGGGK
peptide 2: DQEWAWVQCEVYGRGCPS
modifications: not fully specified (bridges); cysteine pairing not given here; also: K16 of chain 1 chemically linked to C-terminus of chain 2 (C-C on a lysine)
For B26, the Kd amounted to 30 nM.

B27: S557 (peptide)
peptide: SLEEEWAQIECEVYGRGCPSESFYDWFERQL
Turning to B27, the affinity, expressed as Kd, was 0.02 nM.

B28: S517 (peptide)
peptide: SIEEEWAQIKCDVWGRGCPSESFYDWFERQL
The molecule B28 yielded a Kd of 0.6 nM.

B29: S534 (peptide)
peptide: B27 peptide with Q8W, I9V, E10Q
Take B29: binding was characterised by a dissociation constant (Kd) of 0.01 nM.

B30: S558 (peptide)
peptide: B27 peptide with Y14W
B30 yielded a Kd of 0.019 nM.

B31: S530 (peptide)
peptide: B27 peptide with I9V
B31 yielded a Kd of 0.008 nM.

B32: S606 (peptide)
peptide: B27 peptide with E10Q, Y14W
B32 came in with a Kd of 0.004 nM.

B33: S471 (peptide)
peptide: LDQEWAWVQCEVYGRGCPSESFYDWFERQLG
On to B33, for which the Kd was 0.67 nM.

B34: S494 (peptide)
peptide: B33 peptide with L1A
B34: the Kd turned out to be 17 nM.

B35: S442 (peptide)
peptide 1: ESFYDWFERQLGGGGK
peptide 2: AWVQCEVYGRGCPS
modifications: not fully specified (bridges); cysteine pairing not given here; also: bond at chain A 16 to a chain's C-terminus
For B35, binding was characterised by a dissociation constant (Kd) of 160 nM.

B36: S459 (peptide)
peptide: GSLDESFYDWFERQLGGGSGGSWLDQEWAWVQCEVYGRGCPS
In turn, B36 displayed a Kd of 0.076 nM.

B37: S543 (peptide)
peptide: B36 peptide with Q26E, W30Q
B37 showed a Kd of 0.019 nM.

B38: S512 (peptide)
peptide: WLDQEWAWVQCEVYGRGCPSGGSGGSSQAGSAFYAWFDQVLRTV
As for B38, the Kd amounted to 28 nM.

B39: S521 (peptide)
peptide: HLCVLEELFWGASLFGYCSGGSLDESFYDWFERQL
B39: the affinity, expressed as Kd, was 27 nM.

B40: S533 (peptide)
peptide: LDQEWAQVQCEVYGRGCPSESFYDWFERQL
The molecule B40 had a Kd of 0.067 nM.

B41: S495 (peptide)
peptide: B40 peptide with D2A, Q7W
As for B41, binding was put at a Kd of 2.6 nM.

B42: S498 (peptide)
peptide: B40 peptide with W5A, Q7W
B42 came in with a Kd of 56 nM.

B43: S503 (peptide)
peptide: B40 peptide with Q7W, V12A
For B43, the affinity, expressed as Kd, was 2.1 nM.

B44: S536 (peptide)
peptide: B40 peptide with D2E, Q3E, Q9E
For the molecule B44, the Kd was 0.083 nM.

B45: S502 (peptide)
peptide: B40 peptide with Q7W, E11A
B45 gave a Kd of 3 nM.

B46: S504 (peptide)
peptide: B40 peptide with Q7W, Y13A
The molecule B46 registered a Kd of 13 nM.

B47: S499 (peptide)
peptide: B40 peptide with Q7A
As to B47, binding was characterised by a dissociation constant (Kd) of 0.62 nM.

B48: S497 (peptide)
peptide: B40 peptide with E4A, Q7W
B48 had a Kd of 2.5 nM.

B49: S486 (peptide)
peptide: LDQEWAWVQCVYGRGCPSESFYDWFERQLG
As to B49, binding was put at a Kd of 57 nM.

B50: S511 (peptide)
peptide: WLDQEWAWVQCEVYGRGCPSGGSGGSGRVDWLQRNANFYDWFVAELG
B50 returned a Kd of 3.8 nM.
